Measurements: the supplement of paper PMC10724198
± gives the standard deviation of the averaged measurements.

System: Saccharomyces cerevisiae
Experiment: protein stability index of tFT-peptide fusion (C-terminal peptide) (PSI (0-1 scale)); higher = more stable (slower turnover)
Details: genetic background: wild type; temperature: 30 C
Protocol: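 MPS profiling in S. cerevisiae of the tFT-X12 degron library: putative degron peptides plus stable controls, 12 aa, fused to the C-terminus of a sfGFP-mCherry timer. Cells are FACS-sorted into 8 mCherry/sfGFP bins and deep-sequenced. PSI runs from 0 (unstable) to 1 (stable). Backgrounds are wild type, das1Δ and doa10Δ at 30 °C, and wild type, das1Δ, cdc34-1 and cdc53-1 at 37 °C; 2-3 technical replicates each.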
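Also: PSI is a weighted mean of sequencing reads over stability bins, variants kept only with over 10 reads, mCherry proximal and sfGFP distal, peptide attached via GGGS linker.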

| Sequence | protein stability index |
| --- | --- |
| CRLFFVFVFFWW | 0.249 ± 0.022 |
| CSFCSGMILLLS | 0.323 ± 0.044 |
| CTAWWVKGVAVK | 0.435 ± 0.018 |
| CVILVSFFCYSA | 0.132 ± 0.059 |
| CVLLVFLHLCLA | 0.263 ± 0.049 |
| CVLVLLLRLAFL | 0.434 ± 0.0093 |
| CWILLFGCVWVG | 0.234 ± 0.0095 |
| CWSSVGLSVCGC | 0.599 ± 0.012 |
| CWYRAVSIQYVL | 0.272 ± 0.027 |
| DFWMLLFGIIFA | 0.4 ± 0.027 |
| DHSWGGLLICTC | 0.364 ± 0.028 |
| DILCGRCMIVGA | 0.422 ± 0.011 |
| DIRLWISCTLWF | 0.242 ± 0.025 |
| DLFVFFVFHFFL | 0.38 ± 0.033 |
| DLRFAWLLSCFS | 0.334 ± 0.022 |
| DSSRRKRLICMN | 0.21 ± 0.032 |
| DVWEHLHKQHNM | 0.348 ± 0.053 |
| EGVVLLVDCVAT | 0.308 ± 0.02 |
| ERRWKRKVIGLC | 0.131 ± 0.0095 |
| ERRWVLVAWRFK | 0.442 ± 0.03 |

| Sequence | protein stability index |
| --- | --- |
| ESSRNILLWRTI | 0.264 ± 0.037 |
| ETYCLPRVASGI | 0.665 ± 0.021 |
| EWAILSLGVMCV | 0.184 ± 0.032 |
| EYGLLLTLLAYY | 0.324 ± 0.021 |
| FCDFLFVFPLFS | 0.479 ± 0.024 |
| FCLGFRFFVFFL | 0.163 ± 0.022 |
| FCRLTFCFFAFL | 0.438 ± 0.014 |
| FCTSSRLLYCSA | 0.202 ± 0.026 |
| FCTVYFVCVWEM | 0.212 ± 0.015 |
| FECLLFVNLLVI | 0.188 ± 0.03 |
| FFCCRLPCLFVL | 0.174 ± 0.011 |
| FFCLFCLSCWVL | 0.312 ± 0.04 |
| FFCLVEVFVGVF | 0.0928 ± 0.033 |
| FFCVLGLSFFCL | 0.549 ± 0.021 |
| FFLFLFFFLRGS | 0.402 ± 0.035 |
| FFRVCNALLLVC | 0.0394 ± 0.01 |
| FFSFFLSFRLWF | 0.429 ± 0.038 |
| FFTLSTVKLLRV | 0.412 ± 0.027 |
| FFVFVVFFCFGL | 0.303 ± 0.0093 |
| FGLLLVLASALG | 0.307 ± 0.019 |

| Sequence | protein stability index |
| --- | --- |
| FGLMCFIFYVLV | 0.225 ± 0.018 |
| FHFLFLFSLVSV | 0.279 ± 0.012 |
| FILLHLLGTIRS | 0.352 ± 0.026 |
| FIMHRIFMALVI | 0.253 ± 0.025 |
| FLFCMIFIFRCF | 0.165 ± 0.015 |
| FLFLFIFYFFCC | 0.314 ± 0.032 |
| FLFLSPLALHVS | 0.212 ± 0.024 |
| FLIVLLVIFFGF | 0.269 ± 0.04 |
| FLLASSRRICCS | 0.269 ± 0.028 |
| FLLCGVFFFFFV | 0.245 ± 0.032 |
| FLLGWFLFFVCS | 0.283 ± 0.027 |
| FLLYSILLAFLL | 0.345 ± 0.033 |
| FLMLFVVLWLFL | 0.369 ± 0.04 |
| FLPFRVFNFSLV | 0.229 ± 0.026 |
| FLSFARSSCLWF | 0.666 ± 0.0085 |
| FMSAGVSWIFFV | 0.13 ± 0.012 |
| FNLWCRQLASIE | 0.284 ± 0.012 |
| FPLFCRIHLLCS | 0.0768 ± 0.011 |
| FPPHFLPLVFLS | 0.0804 ± 0.02 |
| FPRPLPVPLAVS | 0.181 ± 0.0047 |

Same assay, conditions: genetic background: wild type; temperature: 37 C

| Sequence | protein stability index |
| --- | --- |
| CRLFFVFVFFWW | 0.274 ± 0.023 |
| CSFCSGMILLLS | 0.527 ± 0.028 |
| CTAWWVKGVAVK | 0.624 ± 0.029 |
| CVILVSFFCYSA | 0.284 ± 0.0073 |
| CVLLVFLHLCLA | 0.402 ± 0.0075 |
| CVLVLLLRLAFL | 0.561 ± 0.015 |
| CWILLFGCVWVG | 0.336 ± 0.037 |
| CWSSVGLSVCGC | 0.693 ± 0.024 |
| CWYRAVSIQYVL | 0.412 ± 0.0089 |
| DFWMLLFGIIFA | 0.538 ± 0.017 |
| DHSWGGLLICTC | 0.513 ± 0.017 |
| DILCGRCMIVGA | 0.555 ± 0.013 |
| DIRLWISCTLWF | 0.37 ± 0.019 |
| DLFVFFVFHFFL | 0.5686 ± 0.0029 |
| DLRFAWLLSCFS | 0.476 ± 0.0054 |
| DSSRRKRLICMN | 0.341 ± 0.017 |
| DVWEHLHKQHNM | 0.62 ± 0.032 |
| EGVVLLVDCVAT | 0.492 ± 0.02 |
| ERRWKRKVIGLC | 0.214 ± 0.024 |
| ERRWVLVAWRFK | 0.6 ± 0.017 |

| Sequence | protein stability index |
| --- | --- |
| ESSRNILLWRTI | 0.565 ± 0.018 |
| ETYCLPRVASGI | 0.708 ± 0.02 |
| EWAILSLGVMCV | 0.173 ± 0.011 |
| EYGLLLTLLAYY | 0.5128 ± 0.0022 |
| FCDFLFVFPLFS | 0.6321 ± 0.0062 |
| FCLGFRFFVFFL | 0.288 ± 0.021 |
| FCRLTFCFFAFL | 0.5586 ± 0.00064 |
| FCTSSRLLYCSA | 0.278 ± 0.0096 |
| FCTVYFVCVWEM | 0.362 ± 0.014 |
| FECLLFVNLLVI | 0.349 ± 0.012 |
| FFCCRLPCLFVL | 0.194 ± 0.0073 |
| FFCLFCLSCWVL | 0.3863 ± 0.0017 |
| FFCLVEVFVGVF | 0.107 ± 0.014 |
| FFCVLGLSFFCL | 0.566 ± 0.016 |
| FFLFLFFFLRGS | 0.511 ± 0.021 |
| FFRVCNALLLVC | 0.0662 ± 0.015 |
| FFSFFLSFRLWF | 0.434 ± 0.058 |
| FFTLSTVKLLRV | 0.5379 ± 0.0018 |
| FFVFVVFFCFGL | 0.41 ± 0.014 |
| FGLLLVLASALG | 0.4411 ± 0.0012 |

| Sequence | protein stability index |
| --- | --- |
| FGLMCFIFYVLV | 0.337 ± 0.0078 |
| FHFLFLFSLVSV | 0.37513 ± 0.00036 |
| FILLHLLGTIRS | 0.4948 ± 0.0018 |
| FIMHRIFMALVI | 0.359 ± 0.0092 |
| FLFCMIFIFRCF | 0.252 ± 0.022 |
| FLFLFIFYFFCC | 0.401 ± 0.06 |
| FLFLSPLALHVS | 0.256 ± 0.011 |
| FLIVLLVIFFGF | 0.357 ± 0.018 |
| FLLASSRRICCS | 0.47 ± 0.013 |
| FLLCGVFFFFFV | 0.319 ± 0.013 |
| FLLGWFLFFVCS | 0.393 ± 0.013 |
| FLLYSILLAFLL | 0.492 ± 0.037 |
| FLMLFVVLWLFL | 0.448 ± 0.0072 |
| FLPFRVFNFSLV | 0.441 ± 0.05 |
| FLSFARSSCLWF | 0.7115 ± 0.00098 |
| FMSAGVSWIFFV | 0.129 ± 0.011 |
| FNLWCRQLASIE | 0.178 ± 0.0067 |
| FPLFCRIHLLCS | 0.0529 ± 0.0047 |
| FPPHFLPLVFLS | 0.0988 ± 0.0048 |
| FPRPLPVPLAVS | 0.221 ± 0.005 |
